Assay results from patent US20190218277A1 (Chugai, published 2019).
Substitutions are numbered along the chain they refer to.

T1: human FcγRIIa (167H) (human, UniProt P12318 36-217)
T1 construct: also called human FcγR2a allelic variant 167H
T1 sequence: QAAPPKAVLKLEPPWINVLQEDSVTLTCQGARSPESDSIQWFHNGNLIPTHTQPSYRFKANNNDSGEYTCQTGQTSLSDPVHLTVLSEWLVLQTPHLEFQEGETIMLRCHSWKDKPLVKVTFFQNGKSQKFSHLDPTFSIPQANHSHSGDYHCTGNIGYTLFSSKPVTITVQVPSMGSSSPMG

T2: mouse FcγRIII (mouse, UniProt P08508 31-215)
T2 construct: also called mFcγRIII; mouse FcγR3
T2 chain: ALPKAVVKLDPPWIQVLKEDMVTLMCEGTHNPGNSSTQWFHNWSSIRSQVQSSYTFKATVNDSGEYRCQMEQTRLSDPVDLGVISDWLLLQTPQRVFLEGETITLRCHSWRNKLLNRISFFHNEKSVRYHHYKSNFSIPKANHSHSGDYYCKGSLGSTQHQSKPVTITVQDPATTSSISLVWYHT

T3: human FcγRIIb (human, UniProt P31994 43-217)
T3 construct: also called human FcγR2b
T3 sequence: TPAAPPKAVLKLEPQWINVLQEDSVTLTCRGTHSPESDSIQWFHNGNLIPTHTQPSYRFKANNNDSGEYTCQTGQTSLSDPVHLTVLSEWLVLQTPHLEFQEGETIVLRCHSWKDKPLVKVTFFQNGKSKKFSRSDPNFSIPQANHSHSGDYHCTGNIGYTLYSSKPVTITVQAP

T4: human FcγRIIIb (NA1) (human, UniProt O75015 17-200)
T4 construct: also called human FcγR3b allelic variant NA1
T4 chain: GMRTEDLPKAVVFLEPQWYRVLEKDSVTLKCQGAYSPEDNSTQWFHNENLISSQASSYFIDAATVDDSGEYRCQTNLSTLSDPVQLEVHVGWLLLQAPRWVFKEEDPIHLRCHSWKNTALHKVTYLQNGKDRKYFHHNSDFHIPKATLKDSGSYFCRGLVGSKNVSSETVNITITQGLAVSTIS

T5: mouse FcγRI (mouse, UniProt P26151 25-297)
T5 construct: also called mFcγRI; mouse FcγR1
T5 sequence: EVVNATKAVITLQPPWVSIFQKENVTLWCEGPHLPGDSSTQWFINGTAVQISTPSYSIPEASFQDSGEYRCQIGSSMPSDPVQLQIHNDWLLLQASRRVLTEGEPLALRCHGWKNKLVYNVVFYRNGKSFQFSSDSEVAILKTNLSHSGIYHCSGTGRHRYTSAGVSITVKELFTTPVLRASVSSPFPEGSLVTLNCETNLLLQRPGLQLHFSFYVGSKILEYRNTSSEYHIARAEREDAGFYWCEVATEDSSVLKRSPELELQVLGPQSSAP

T6: mouse FcγRIIb (mouse, UniProt P08101 30-210)
T6 construct: also called mFcγRIIb; mouse FcγR2b
T6 sequence: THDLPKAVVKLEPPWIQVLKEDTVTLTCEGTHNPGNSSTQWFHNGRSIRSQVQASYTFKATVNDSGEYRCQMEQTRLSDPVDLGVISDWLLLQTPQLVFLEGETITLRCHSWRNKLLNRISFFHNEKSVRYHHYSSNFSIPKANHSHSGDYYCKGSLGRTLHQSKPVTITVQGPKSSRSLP

B1: Anti-CD154 antibody (SLAPH0336a/SLAPL0336a) with Fc variant LALA+ACT3 (SG1044) (antibody)
heavy: EVQLVESGGGSVKPGGSLKLSCAASGFTFSDHYMYWVRQTPEKRLEWVAIISGGGSYTSYPDSMKGRFTISRDNAKNILHLQMSSLKSEDTAMYYCTRESNGKPGFAYWGQGTLVTVSAASTKGPSVFPLAPSSKSTSGGTAALGCLVKDYFPEPVTVSWNSGALTSGVHTFPAVLQSSGLYSLSSVVTVPSSSLGTQTYICNVNHKPSNTKVDKRVEPKSCDKTHTCPPCPAPEAAGGPSVFLFPPKPKDTLMISRTPEVTCVVVDVSHEDPEVKFNWYVDGVEVHNAKTKPREEQYNSTYRVVSVLTVLHQDWLNGKEYKCKVSNKALPAPIEKTISKAKGQPREPQVYTLPPSREEMTKNQVSLTCLVKGFYPSDIAVEWESNGQPENNYKTTPPVLDSDGSFFLYSKLTVDKSRWQQGNVFSCSVLHEALHAHTTRKELSLSP
light: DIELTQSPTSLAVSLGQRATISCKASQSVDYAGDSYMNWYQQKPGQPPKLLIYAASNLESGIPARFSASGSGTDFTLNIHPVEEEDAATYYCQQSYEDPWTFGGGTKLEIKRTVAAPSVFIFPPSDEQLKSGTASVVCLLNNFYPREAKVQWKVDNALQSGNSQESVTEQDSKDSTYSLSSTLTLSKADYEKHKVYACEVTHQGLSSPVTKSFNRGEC
B2: Anti-CD154 antibody (SLAPH0336a/SLAPL0336a) with Fc variant LALA+ACT5 (SG1045) (antibody)
heavy: B1 heavy with T438Y
light: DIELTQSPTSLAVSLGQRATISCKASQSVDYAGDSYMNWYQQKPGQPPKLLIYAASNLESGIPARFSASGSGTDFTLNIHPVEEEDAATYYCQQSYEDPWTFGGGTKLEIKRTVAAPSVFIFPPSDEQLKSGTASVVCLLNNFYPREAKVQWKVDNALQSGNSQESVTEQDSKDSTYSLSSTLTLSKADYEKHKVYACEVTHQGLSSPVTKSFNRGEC
B3: Anti-CD154 antibody (SLAPH0336a/SLAPL0336a) with Fc variant LALA+ACT3+KAES (SG1105) (antibody)
heavy: B1 heavy with K328A, E335S
light: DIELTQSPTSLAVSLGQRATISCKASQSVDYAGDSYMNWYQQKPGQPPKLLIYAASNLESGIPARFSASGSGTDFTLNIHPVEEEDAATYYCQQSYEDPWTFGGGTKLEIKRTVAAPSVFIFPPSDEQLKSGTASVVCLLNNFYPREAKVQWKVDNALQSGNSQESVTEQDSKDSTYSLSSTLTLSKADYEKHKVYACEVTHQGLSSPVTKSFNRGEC
notes: also called LALA+KAES+ACT3
B4: Anti-CD154 antibody (SLAPH0336a/SLAPL0336a) with Fc variant LALA+ACT5+KAES (SG1106) (antibody)
heavy: B1 heavy with K328A, E335S, T438Y
light: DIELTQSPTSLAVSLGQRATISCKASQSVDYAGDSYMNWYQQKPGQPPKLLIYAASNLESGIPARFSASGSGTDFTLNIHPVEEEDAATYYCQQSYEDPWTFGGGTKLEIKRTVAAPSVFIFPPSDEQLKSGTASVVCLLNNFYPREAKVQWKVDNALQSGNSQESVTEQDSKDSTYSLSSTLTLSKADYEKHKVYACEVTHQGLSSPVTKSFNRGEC
notes: also called LALA+KAES+ACT5

The binders below were run against T7, human FcγRIa (human, UniProt P12314 16-292) (assay: SPR (Biacore T200, pH 7.4, 25 °C): His-tagged FcγR captured by anti-His antibody; antibody injected at 100 nM alone (Ab alone) or as 1:1 complex with trimeric CD154 (CD154 IC); binding level / capture level [A]).
T7 construct: also called human FcγR1a
T7 sequence (P12314 16-292 limits assumed): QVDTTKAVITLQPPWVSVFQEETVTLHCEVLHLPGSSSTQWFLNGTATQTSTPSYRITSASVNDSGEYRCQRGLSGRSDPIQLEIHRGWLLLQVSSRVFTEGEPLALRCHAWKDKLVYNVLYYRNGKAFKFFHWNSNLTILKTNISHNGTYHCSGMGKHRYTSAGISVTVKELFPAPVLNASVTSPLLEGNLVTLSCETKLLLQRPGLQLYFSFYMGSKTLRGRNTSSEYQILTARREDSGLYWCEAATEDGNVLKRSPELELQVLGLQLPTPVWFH

Row | Binder | binding result
1 | B1 | binds
2 | B2 | binds
3 | B3 | binds
4 | B4 | binds

Each binder was assayed against mouse C1q (from 10% mouse plasma) (mouse, UniProt P98086 23-245; P14106 26-253; Q02105 30-246) (assay: ELISA: antibody coated on the plate at the concentration shown, 10% mouse plasma added, detected with biotinylated anti-mouse C1q and streptavidin-HRP, OD 405 nm).
Chain of mouse C1q (from 10% mouse plasma) (P98086 23-245 limits assumed, chain 1 of 3): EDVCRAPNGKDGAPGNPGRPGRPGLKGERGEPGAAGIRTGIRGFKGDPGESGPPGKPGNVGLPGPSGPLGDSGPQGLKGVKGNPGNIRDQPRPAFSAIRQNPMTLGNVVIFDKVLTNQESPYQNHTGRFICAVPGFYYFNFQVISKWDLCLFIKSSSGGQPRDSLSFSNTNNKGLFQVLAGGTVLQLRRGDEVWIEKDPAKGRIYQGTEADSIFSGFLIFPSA
Chain of mouse C1q (from 10% mouse plasma) (P14106 26-253 limits assumed, chain 2 of 3): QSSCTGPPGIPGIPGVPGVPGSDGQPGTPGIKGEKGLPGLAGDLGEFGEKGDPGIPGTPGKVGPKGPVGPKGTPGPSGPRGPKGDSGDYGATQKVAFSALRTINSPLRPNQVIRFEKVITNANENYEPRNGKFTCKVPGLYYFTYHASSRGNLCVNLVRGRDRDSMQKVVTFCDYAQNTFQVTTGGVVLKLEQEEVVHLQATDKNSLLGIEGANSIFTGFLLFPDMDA
Chain of mouse C1q (from 10% mouse plasma) (Q02105 30-246 limits assumed, chain 3 of 3): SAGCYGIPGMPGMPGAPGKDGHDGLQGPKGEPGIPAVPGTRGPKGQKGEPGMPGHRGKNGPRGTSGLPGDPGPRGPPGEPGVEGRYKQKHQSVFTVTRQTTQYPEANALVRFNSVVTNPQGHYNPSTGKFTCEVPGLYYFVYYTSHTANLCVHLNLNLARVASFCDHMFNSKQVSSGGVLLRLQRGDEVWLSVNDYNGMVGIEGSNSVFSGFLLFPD

Row | Binder | binding result
5 | B1 | binds
6 | B2 | binds
7 | B3 | binds
8 | B4 | binds

What follows are binders tested against T1, human FcγRIIa (167H) (assay: SPR (Biacore T200, pH 7.4, 25 °C): His-tagged FcγR captured by anti-His antibody; antibody injected at 100 nM alone (Ab alone) or as 1:1 complex with trimeric CD154 (CD154 IC); binding level / capture level [B]).

Row | Binder | binding result
9 | B1 | no binding (tested: 100 nM)
10 | B2 | no binding (tested: 100 nM)
11 | B3 | no binding (tested: 100 nM)
12 | B4 | no binding (tested: 100 nM)

Molecular target: T2, mouse FcγRIII
Assay: SPR (Biacore T200, pH 7.4, 25 °C): His-tagged FcγR captured by anti-His antibody; antibody injected at 100 nM alone (Ab alone) or as 1:1 complex with trimeric CD154 (CD154 IC); binding level / capture level [C]

Row | Binder | binding result
13 | B1 | no binding (tested: 100 nM)
14 | B2 | no binding (tested: 100 nM)
15 | B3 | no binding (tested: 100 nM)
16 | B4 | no binding (tested: 100 nM)

What follows are binders tested against T8, human FcγRIIIa (158V) (human, UniProt P08637 17-208) (assay: SPR (Biacore T200, pH 7.4, 25 °C): His-tagged FcγR captured by anti-His antibody; antibody injected at 100 nM alone (Ab alone) or as 1:1 complex with trimeric CD154 (CD154 IC); binding level / capture level [F]).
T8 construct: also called human FcγR3a allelic variant 158V
T8 sequence (P08637 other isoform, or with tags, fused parts or gaps limits assumed): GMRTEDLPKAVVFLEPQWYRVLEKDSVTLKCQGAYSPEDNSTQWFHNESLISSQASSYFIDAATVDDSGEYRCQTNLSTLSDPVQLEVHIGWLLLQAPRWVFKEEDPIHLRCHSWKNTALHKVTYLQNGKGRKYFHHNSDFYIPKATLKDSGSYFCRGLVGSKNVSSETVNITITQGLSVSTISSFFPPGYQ

Row | Binder | binding result
17 | B2 | binds
18 | B3 | binds
19 | B4 | binds

The binders below were run against T3, human FcγRIIb (assay: SPR (Biacore T200, pH 7.4, 25 °C): His-tagged FcγR captured by anti-His antibody; antibody injected at 100 nM alone (Ab alone) or as 1:1 complex with trimeric CD154 (CD154 IC); binding level / capture level [D]).

Row | Binder | binding result
20 | B1 | no binding (tested: 100 nM)
21 | B2 | no binding (tested: 100 nM)
22 | B3 | no binding (tested: 100 nM)
23 | B4 | no binding (tested: 100 nM)

Molecular target: T4, human FcγRIIIb (NA1)
Assay: SPR (Biacore T200, pH 7.4, 25 °C): His-tagged FcγR captured by anti-His antibody; antibody injected at 100 nM alone (Ab alone) or as 1:1 complex with trimeric CD154 (CD154 IC); binding level / capture level [G]

Row | Binder | binding result
24 | B1 | no binding (tested: 100 nM)
25 | B2 | no binding (tested: 100 nM)
26 | B3 | no binding (tested: 100 nM)
27 | B4 | no binding (tested: 100 nM)

The binders below were run against human C1q (Calbiochem) (human, UniProt P02745 23-245; P02746 28-253; P02747 29-245) (assay: ELISA: antibody coated on the plate at the concentration shown, human C1q added, detected with HRP anti-human C1q, OD 450 nm).
Chain of human C1q (Calbiochem) (P02745 23-245 limits assumed, chain 1 of 3): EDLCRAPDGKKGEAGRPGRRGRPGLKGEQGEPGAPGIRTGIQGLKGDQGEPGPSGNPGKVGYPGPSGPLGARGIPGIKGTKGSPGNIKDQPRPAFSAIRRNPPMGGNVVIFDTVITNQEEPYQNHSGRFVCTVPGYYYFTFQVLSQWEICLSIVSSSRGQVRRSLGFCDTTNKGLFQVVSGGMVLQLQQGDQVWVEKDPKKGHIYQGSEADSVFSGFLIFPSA
Chain of human C1q (Calbiochem) (P02746 28-253 limits assumed, chain 2 of 3): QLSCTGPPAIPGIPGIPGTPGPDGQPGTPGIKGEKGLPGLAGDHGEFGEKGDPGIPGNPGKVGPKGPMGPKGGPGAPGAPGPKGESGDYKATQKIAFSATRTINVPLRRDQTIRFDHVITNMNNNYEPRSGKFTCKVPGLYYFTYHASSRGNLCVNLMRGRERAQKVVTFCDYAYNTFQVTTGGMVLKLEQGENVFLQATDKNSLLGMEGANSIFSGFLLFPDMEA
Chain of human C1q (Calbiochem) (P02747 29-245 limits assumed, chain 3 of 3): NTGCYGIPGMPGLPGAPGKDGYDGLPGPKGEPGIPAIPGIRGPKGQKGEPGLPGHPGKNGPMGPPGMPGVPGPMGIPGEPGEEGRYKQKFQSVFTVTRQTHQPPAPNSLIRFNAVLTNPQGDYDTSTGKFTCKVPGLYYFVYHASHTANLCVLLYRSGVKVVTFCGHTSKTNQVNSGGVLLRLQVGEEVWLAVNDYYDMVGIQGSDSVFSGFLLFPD

Row | Binder | binding result
28 | B1 | binds
29 | B2 | binds
30 | B3 | binds
31 | B4 | binds

The binders below were run against T5, mouse FcγRI (assay: SPR (Biacore T200, pH 7.4, 25 °C): His-tagged FcγR captured by anti-His antibody; antibody injected at 100 nM alone (Ab alone) or as 1:1 complex with trimeric CD154 (CD154 IC); binding level / capture level [A]).

Row | Binder | binding result
32 | B1 | no binding (tested: 100 nM)
33 | B2 | no binding (tested: 100 nM)
34 | B3 | no binding (tested: 100 nM)
35 | B4 | no binding (tested: 100 nM)

Each binder was assayed against T6, mouse FcγRIIb (assay: SPR (Biacore T200, pH 7.4, 25 °C): His-tagged FcγR captured by anti-His antibody; antibody injected at 100 nM alone (Ab alone) or as 1:1 complex with trimeric CD154 (CD154 IC); binding level / capture level [B]).

Row | Binder | binding result
36 | B1 | no binding (tested: 100 nM)
37 | B2 | no binding (tested: 100 nM)
38 | B3 | no binding (tested: 100 nM)
39 | B4 | no binding (tested: 100 nM)
